Results taken from the supplement of paper PMC10065799, “High-throughput profiling of sequence recognition by tyrosine kinases and SH2 domains using bacterial peptide display” (eLife, 2023).

Target: Hck (UniProt P08631)
Assay: phosphorylation enrichment, bacterial display (enrichment ratio); higher = better substrate or ligand; peptides without Tyr show the background
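Note: 11-residue human phosphosite peptides and single-mutation variants displayed on the E. coli surface, counted by deep sequencing, each peptide's frequency after selection divided by its frequency in the unselected input library; frequency after pTyr selection over input frequency; kinase dosed for 20-30% of maximal phosphorylation in three min.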

Hck, sequence (P08631 whole entry, looked up): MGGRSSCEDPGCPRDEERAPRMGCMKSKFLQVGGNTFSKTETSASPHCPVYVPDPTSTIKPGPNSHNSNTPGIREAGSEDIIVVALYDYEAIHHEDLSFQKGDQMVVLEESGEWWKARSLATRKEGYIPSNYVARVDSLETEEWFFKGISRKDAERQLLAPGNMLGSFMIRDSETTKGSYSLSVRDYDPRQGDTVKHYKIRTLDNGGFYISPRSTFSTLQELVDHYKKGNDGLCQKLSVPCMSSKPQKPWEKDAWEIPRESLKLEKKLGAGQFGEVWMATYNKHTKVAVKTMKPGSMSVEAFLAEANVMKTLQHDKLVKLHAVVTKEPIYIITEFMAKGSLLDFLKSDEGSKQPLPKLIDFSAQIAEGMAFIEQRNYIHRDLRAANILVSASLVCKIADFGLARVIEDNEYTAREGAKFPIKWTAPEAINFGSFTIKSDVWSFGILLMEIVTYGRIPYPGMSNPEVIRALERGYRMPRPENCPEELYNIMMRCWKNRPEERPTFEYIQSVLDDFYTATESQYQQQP

Sequence | phosphorylation enrichment
RLGDLYEEEMR [VIM_Y150] | 0.379
VFPIDYFFPPQ [AR_Y552_L548F_YF] | 0.618
KRLAVYQAGAR [APOE_Y180] | 0.335
SADIAYNYRHG [PAH_Y166_F161S] | 0.344
PPAPRYHHLAV [LZTR1_Y119_S122L] | 0.71
GIMEEYQLPFF [BMPR1A_Y453_V450M_YF] | 0.676
IGCHAYGDQFR [IDH1_Y135_R132C_YF] | 0.51
TGDFGYRTPGF [TNS2_Y668_A670T_YF] | 0.401
DLHGIYQKLVI | 7.64
VHVEVYDRPSP | 1.95
DMLYQYLKQIE [RPAP3_Y569] | 5.42
AKIDGYITSFR | 0.381
RTTIHYNYMCN [TP53_Y234_C229R] | 1.11
YKTPIYPYLLP [PLD2_Y578_T577I] | 0.628
AKRKGYDMQVD [NEB_Y2770_R2773Q] | 0.363
AMGAVYQAAAL [HYOU1_Y421] | 3.19
FQQLFYLLQTN [IQGAP2_Y890_YF] | 0.688

Sequence | phosphorylation enrichment
ETKEDYEKILV [ANXA1_Y335_G333E] | 0.572
KTVQDYLEKFF [MMP8_Y36_YF] | 0.502
LLGFLYFFVCS [SLC34A2_Y109] | 0.948
FRDMDYRSFPR [RBM10_Y41_YF] | 0.477
SGIYQYSIAKF [FOXL2_Y83_I84S] | 5.59
LLNPSYNLPLD [TOM1L1_Y109_R108S] | 1.07
RLAKTYKTTLE [ALB_Y377_E378K] | 0.388
RNPLRYTSILT [OR51B6_Y130_S126N] | 0.498
IRQDHYESLKE [MTR_Y921] | 0.594
TTPGPHRSIFF [MPG_Y71_Y71H_YF] | 0.355
PSARTYCYKQE [KLHDC9_Y175] | 0.506
LLLLFCVVRYC [MPZ_Y177_Y177C] | 2.16
SIRFNYLLDVL [FGFR4_Y237_YF] | 0.485
EIIPFYGMSTF [FNDC3B_Y175_YF] | 0.844
WFPSTYVEEDE [VAV3_Y842] | 0.741
ANNEYYFQVCA | 0.706

Target: Jak2 (UniProt O60674)
Assay: as above

Jak2, sequence (O60674 whole entry, looked up): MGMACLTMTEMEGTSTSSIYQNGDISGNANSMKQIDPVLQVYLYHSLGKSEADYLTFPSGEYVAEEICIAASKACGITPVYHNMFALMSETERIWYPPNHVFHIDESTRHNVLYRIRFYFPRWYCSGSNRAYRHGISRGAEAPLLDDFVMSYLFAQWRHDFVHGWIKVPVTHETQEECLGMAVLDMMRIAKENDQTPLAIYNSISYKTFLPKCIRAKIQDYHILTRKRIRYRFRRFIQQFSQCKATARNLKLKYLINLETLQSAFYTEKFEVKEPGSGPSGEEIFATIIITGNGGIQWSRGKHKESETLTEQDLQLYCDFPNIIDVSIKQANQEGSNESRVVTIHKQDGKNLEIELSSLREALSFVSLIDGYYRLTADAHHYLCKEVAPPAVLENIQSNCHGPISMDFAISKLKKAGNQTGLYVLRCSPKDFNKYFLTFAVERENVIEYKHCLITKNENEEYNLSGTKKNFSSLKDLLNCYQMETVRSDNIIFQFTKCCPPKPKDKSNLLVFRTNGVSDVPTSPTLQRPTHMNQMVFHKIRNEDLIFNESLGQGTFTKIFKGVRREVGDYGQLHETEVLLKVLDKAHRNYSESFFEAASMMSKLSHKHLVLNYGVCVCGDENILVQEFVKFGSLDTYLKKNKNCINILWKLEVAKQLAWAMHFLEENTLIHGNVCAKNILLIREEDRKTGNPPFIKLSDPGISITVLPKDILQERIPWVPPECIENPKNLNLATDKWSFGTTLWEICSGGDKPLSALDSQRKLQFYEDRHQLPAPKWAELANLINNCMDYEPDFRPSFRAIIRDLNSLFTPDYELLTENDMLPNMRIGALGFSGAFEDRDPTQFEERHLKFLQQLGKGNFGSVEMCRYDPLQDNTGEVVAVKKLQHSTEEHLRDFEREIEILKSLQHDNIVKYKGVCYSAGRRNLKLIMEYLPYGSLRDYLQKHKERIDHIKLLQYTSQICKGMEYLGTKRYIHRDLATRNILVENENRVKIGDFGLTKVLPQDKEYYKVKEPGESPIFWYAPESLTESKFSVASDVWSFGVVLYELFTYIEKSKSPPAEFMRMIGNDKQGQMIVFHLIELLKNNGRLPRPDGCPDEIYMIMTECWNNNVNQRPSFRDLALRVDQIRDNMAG

Sequence | phosphorylation enrichment
RLGDLYEEEMR [VIM_Y150] | 0.938
VFPIDYFFPPQ [AR_Y552_L548F_YF] | 2.76
KRLAVYQAGAR [APOE_Y180] | 0.464
SADIAYNYRHG [PAH_Y166_F161S] | 0.435
PPAPRYHHLAV [LZTR1_Y119_S122L] | 1.19
GIMEEYQLPFF [BMPR1A_Y453_V450M_YF] | 1.09
IGCHAYGDQFR [IDH1_Y135_R132C_YF] | 0.933
TGDFGYRTPGF [TNS2_Y668_A670T_YF] | 0.526
DLHGIYQKLVI | 0.82
VHVEVYDRPSP | 1.01
DMLYQYLKQIE [RPAP3_Y569] | 0.83
AKIDGYITSFR | 0.535
RTTIHYNYMCN [TP53_Y234_C229R] | 1.57
YKTPIYPYLLP [PLD2_Y578_T577I] | 1.51
AKRKGYDMQVD [NEB_Y2770_R2773Q] | 0.377
AMGAVYQAAAL [HYOU1_Y421] | 0.566
FQQLFYLLQTN [IQGAP2_Y890_YF] | 1.34

Sequence | phosphorylation enrichment
ETKEDYEKILV [ANXA1_Y335_G333E] | 1.01
KTVQDYLEKFF [MMP8_Y36_YF] | 0.986
LLGFLYFFVCS [SLC34A2_Y109] | 2.88
FRDMDYRSFPR [RBM10_Y41_YF] | 0.58
SGIYQYSIAKF [FOXL2_Y83_I84S] | 1.04
LLNPSYNLPLD [TOM1L1_Y109_R108S] | 0.908
RLAKTYKTTLE [ALB_Y377_E378K] | 0.72
RNPLRYTSILT [OR51B6_Y130_S126N] | 0.892
IRQDHYESLKE [MTR_Y921] | 0.733
TTPGPHRSIFF [MPG_Y71_Y71H_YF] | 0.449
PSARTYCYKQE [KLHDC9_Y175] | 0.762
LLLLFCVVRYC [MPZ_Y177_Y177C] | 3.14
SIRFNYLLDVL [FGFR4_Y237_YF] | 1
EIIPFYGMSTF [FNDC3B_Y175_YF] | 0.879
WFPSTYVEEDE [VAV3_Y842] | 1.42
ANNEYYFQVCA | 1.68

Target: MERTK (UniProt Q12866)
Assay: as above

MERTK, sequence (Q12866 whole entry, looked up): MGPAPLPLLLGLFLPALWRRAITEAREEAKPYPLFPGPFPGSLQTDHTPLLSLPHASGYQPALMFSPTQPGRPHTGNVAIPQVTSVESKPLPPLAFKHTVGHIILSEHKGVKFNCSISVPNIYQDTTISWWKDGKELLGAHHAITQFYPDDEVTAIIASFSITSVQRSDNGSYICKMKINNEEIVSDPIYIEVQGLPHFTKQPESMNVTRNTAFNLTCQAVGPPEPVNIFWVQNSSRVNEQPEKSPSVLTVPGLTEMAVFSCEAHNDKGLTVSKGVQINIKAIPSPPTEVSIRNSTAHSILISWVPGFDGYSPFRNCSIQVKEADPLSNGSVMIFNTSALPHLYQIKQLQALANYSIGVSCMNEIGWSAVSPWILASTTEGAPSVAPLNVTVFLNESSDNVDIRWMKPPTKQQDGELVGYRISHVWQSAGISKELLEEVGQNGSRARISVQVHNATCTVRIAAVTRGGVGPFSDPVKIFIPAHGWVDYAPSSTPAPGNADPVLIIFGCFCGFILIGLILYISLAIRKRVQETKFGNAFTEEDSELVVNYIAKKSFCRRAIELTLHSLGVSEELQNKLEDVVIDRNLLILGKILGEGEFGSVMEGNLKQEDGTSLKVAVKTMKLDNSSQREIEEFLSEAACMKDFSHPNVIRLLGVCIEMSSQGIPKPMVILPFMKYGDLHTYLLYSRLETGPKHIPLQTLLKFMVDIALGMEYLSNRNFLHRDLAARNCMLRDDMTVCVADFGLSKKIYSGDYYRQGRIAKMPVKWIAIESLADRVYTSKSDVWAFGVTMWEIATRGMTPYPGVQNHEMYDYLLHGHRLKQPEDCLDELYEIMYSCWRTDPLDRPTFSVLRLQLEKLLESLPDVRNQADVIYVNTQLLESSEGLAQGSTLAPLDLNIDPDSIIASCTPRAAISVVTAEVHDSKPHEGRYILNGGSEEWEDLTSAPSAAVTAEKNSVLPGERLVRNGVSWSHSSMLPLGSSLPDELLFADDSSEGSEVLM

Sequence | phosphorylation enrichment
RLGDLYEEEMR [VIM_Y150] | 0.335
VFPIDYFFPPQ [AR_Y552_L548F_YF] | 0.518
KRLAVYQAGAR [APOE_Y180] | 0.346
SADIAYNYRHG [PAH_Y166_F161S] | 0.329
PPAPRYHHLAV [LZTR1_Y119_S122L] | 0.556
GIMEEYQLPFF [BMPR1A_Y453_V450M_YF] | 0.499
IGCHAYGDQFR [IDH1_Y135_R132C_YF] | 0.497
TGDFGYRTPGF [TNS2_Y668_A670T_YF] | 0.429
DLHGIYQKLVI | 5.38
VHVEVYDRPSP | 0.531
DMLYQYLKQIE [RPAP3_Y569] | 5.97
AKIDGYITSFR | 0.468
RTTIHYNYMCN [TP53_Y234_C229R] | 0.901
YKTPIYPYLLP [PLD2_Y578_T577I] | 2.08
AKRKGYDMQVD [NEB_Y2770_R2773Q] | 0.301
AMGAVYQAAAL [HYOU1_Y421] | 0.431
FQQLFYLLQTN [IQGAP2_Y890_YF] | 0.867

Sequence | phosphorylation enrichment
ETKEDYEKILV [ANXA1_Y335_G333E] | 0.53
KTVQDYLEKFF [MMP8_Y36_YF] | 0.514
LLGFLYFFVCS [SLC34A2_Y109] | 1.04
FRDMDYRSFPR [RBM10_Y41_YF] | 0.446
SGIYQYSIAKF [FOXL2_Y83_I84S] | 9.44
LLNPSYNLPLD [TOM1L1_Y109_R108S] | 0.854
RLAKTYKTTLE [ALB_Y377_E378K] | 0.365
RNPLRYTSILT [OR51B6_Y130_S126N] | 0.484
IRQDHYESLKE [MTR_Y921] | 0.509
TTPGPHRSIFF [MPG_Y71_Y71H_YF] | 0.376
PSARTYCYKQE [KLHDC9_Y175] | 0.736
LLLLFCVVRYC [MPZ_Y177_Y177C] | 2.94
SIRFNYLLDVL [FGFR4_Y237_YF] | 0.387
EIIPFYGMSTF [FNDC3B_Y175_YF] | 0.901
WFPSTYVEEDE [VAV3_Y842] | 0.454
ANNEYYFQVCA | 0.73

Tested on: c-Abl (mouse)
Assay: as above

Sequence | phosphorylation enrichment
RLGDLYEEEMR [VIM_Y150] | 0.585
VFPIDYFFPPQ [AR_Y552_L548F_YF] | 1.03
KRLAVYQAGAR [APOE_Y180] | 0.398
SADIAYNYRHG [PAH_Y166_F161S] | 0.508
PPAPRYHHLAV [LZTR1_Y119_S122L] | 0.664
GIMEEYQLPFF [BMPR1A_Y453_V450M_YF] | 2.27
IGCHAYGDQFR [IDH1_Y135_R132C_YF] | 0.82
TGDFGYRTPGF [TNS2_Y668_A670T_YF] | 0.706
DLHGIYQKLVI | 3.83
VHVEVYDRPSP | 1.33
DMLYQYLKQIE [RPAP3_Y569] | 0.602
AKIDGYITSFR | 0.573
RTTIHYNYMCN [TP53_Y234_C229R] | 1.2
YKTPIYPYLLP [PLD2_Y578_T577I] | 0.899
AKRKGYDMQVD [NEB_Y2770_R2773Q] | 0.372
AMGAVYQAAAL [HYOU1_Y421] | 0.98
FQQLFYLLQTN [IQGAP2_Y890_YF] | 0.897

Sequence | phosphorylation enrichment
ETKEDYEKILV [ANXA1_Y335_G333E] | 0.779
KTVQDYLEKFF [MMP8_Y36_YF] | 0.874
LLGFLYFFVCS [SLC34A2_Y109] | 2.89
FRDMDYRSFPR [RBM10_Y41_YF] | 0.485
SGIYQYSIAKF [FOXL2_Y83_I84S] | 7.69
LLNPSYNLPLD [TOM1L1_Y109_R108S] | 0.855
RLAKTYKTTLE [ALB_Y377_E378K] | 1.18
RNPLRYTSILT [OR51B6_Y130_S126N] | 0.697
IRQDHYESLKE [MTR_Y921] | 0.56
TTPGPHRSIFF [MPG_Y71_Y71H_YF] | 0.542
PSARTYCYKQE [KLHDC9_Y175] | 0.63
LLLLFCVVRYC [MPZ_Y177_Y177C] | 4.58
SIRFNYLLDVL [FGFR4_Y237_YF] | 0.706
EIIPFYGMSTF [FNDC3B_Y175_YF] | 0.97
WFPSTYVEEDE [VAV3_Y842] | 0.875
ANNEYYFQVCA | 1.01
